Results as given in the supplement of paper PMC10126150.
± gives the standard deviation of the averaged measurements.

tested on: ATP; assay: switch fluorescence ratio, 500 uM ATP over buffer (Cy3 cluster intensity, sum of 5 cycles each) (fold (ratio)); higher = stronger signal-on switching upon ATP binding; sequences stand for … in TCGTCGGCAGCGTCAGATGTGTATAAGAGACAGTTTTTTTTTTTTTTTTTTTTTTTTT…TC; conditions: aptamer strand: ATP DNA aptamer (quencher-CACCTGGGGGAGTATTGCGGAGGAAGG + anchor), 100 nM annealed; ATP concentration: 500 uM
Method in brief: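 Imaging in selection buffer was followed by imaging after 15 min with 500 uM ATP at 22 °C, for Cy3-labelled switching-strand clusters annealed to 100 nM quencher-labelled ATP aptamer on a modified Illumina MiSeq flow-cell. Five of these buffer/ATP cycles ran, separated by NaOH stripping and re-annealing. The fluorescence ratio per cluster is summed target-cycle over summed buffer-cycle Cy3 intensity, averaged per switch-domain sequence; clusters outside 100-1000 RFU were removed.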
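Further: ATP exposure 15 min at 22 °C before imaging.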

| Sequence | switch fluorescence ratio |
| --- | --- |
| GAGGCGGGGA | 1.01 ± 0.03 |
| CGTGGGTTGT | 0.9956 ± 0.0018 |
| TTAATATTCT | 0.969 ± 0.065 |
| CTTAACGGCG | 0.968 ± 0.044 |
| TAGGCTTTTG | 1.03 ± 0.056 |
| TACTAAGTTG | 1.07 ± 0.055 |
| ATTCAGGTTG | 1.02 ± 0.016 |
| ATGATGTGGT | 0.992 ± 0.022 |
| ACGGTGTGCG | 1 ± 0.058 |
| GGAAACCATT | 1.03 ± 0.024 |
| ATGGAGGTCT | 1.01 ± 0.055 |
| AAAGTTAGTT | 1.03 ± 0.019 |
| GCCTATTTGG | 0.998 ± 0.023 |
| CAATTAGTGA | 1.01 ± 0.028 |
| CCAGAAAGTG | 1.26 ± 0.38 |
| ATAGTTCTAA | 0.9939 ± 0.0048 |
| GCTTTCTGCG | 1.05 ± 0.042 |
| TCTATGCTTC | 1.9 ± 1.1 |
| CCGCTAGTGG | 1.196 ± 0.0036 |
| ATGATTTGGG | 1.01 ± 0.011 |
| GCCAGCGATC | 2.23 ± 0.81 |
| GCGTATAGGA | 1.01 ± 0.035 |
| GGTAATTGAA | 0.9878 ± 0.0076 |

| Sequence | switch fluorescence ratio |
| --- | --- |
| TCAATGATTT | 0.969 ± 0.022 |
| CAGAGTTTCT | 1.02 ± 0.021 |
| AGAATTGTGG | 0.9728 ± 0.0027 |
| AATTTGAGAA | 0.998 ± 0.029 |
| GAAGGTTGAG | 1.025 ± 0.009 |
| GGCGCGAGAG | 1.032 ± 0.0092 |
| CATTGCAGTG | 1.03 ± 0.02 |
| GGTTCGTATT | 0.975 ± 0.038 |
| ATAAGTCAAA | 0.99 ± 0.016 |
| TCAGCGTACG | 1.01 ± 0.014 |
| ACGTGCAGTC | 1.12 ± 0.083 |
| TTAAGGGTTT | 1.01 ± 0.047 |
| TCGTAGGGTT | 1.01 ± 0.04 |
| ATGGCCGGGA | 0.999 ± 0.016 |
| GAGCAATATA | 5.13 ± 1.7 |
| GGGATCTAGG | 0.974 ± 0.026 |
| TATTCGGCTG | 0.997 ± 0.029 |
| CTTCCCGCCG | 1.26 ± 0.057 |
| TACTGTGACA | 1.14 ± 0.012 |
| CACGTCTAGG | 1.05 ± 0.048 |
| ATTTTTCTTT | 0.992 ± 0.012 |
| GAGGATCTTG | 1 ± 0.031 |
| GGATTGGTGG | 1.01 ± 0.024 |

| Sequence | switch fluorescence ratio |
| --- | --- |
| TATAGCAAGT | 1.07 ± 0.034 |
| GAGTACAGCT | 1.01 ± 0.018 |
| TTTAGATGGA | 0.975 ± 0.021 |
| GAGATGGCAT | 0.987 ± 0.04 |
| CATTTCTGAG | 1.008 ± 0.0061 |
| TTTTGGCAGT | 1.09 ± 0.013 |
| CGATAGCAGC | 2.43 ± 0.52 |
| TCCACACGCT | 2.14 ± 0.25 |
| TTATGTGACT | 1.01 ± 0.021 |
| GGGTCCATTT | 1.01 ± 0.037 |
| TGTTGGGGTG | 0.997 ± 0.045 |
| ATACTGTTGA | 0.973 ± 0.013 |
| TAAGCCTTTT | 1.038 ± 0.0024 |
| ATGCGCTCTA | 0.992 ± 0.018 |
| ACTCAGTATA | 1.1 ± 0.02 |
| TCTTAGTTCA | 0.9825 ± 0.0062 |
| AGTTGAGAG | 1.03 ± 0.017 |
| CCTTTTGCGC | 1.31 ± 0.012 |
| CTCAAAAGA | 1.11 ± 0.077 |
| GGGGTCTGGG | 0.966 ± 0.016 |
| ATTTTGAAGC | 0.991 ± 0.016 |
| CTCCTCAGTG | 2.26 ± 0.29 |
| GATTTAACGG | 1.01 ± 0.038 |

| Sequence | switch fluorescence ratio |
| --- | --- |
| TGACGTACCC | 1.7 ± 0.05 |
| ATAGGGGATT | 1 ± 0.038 |
| TATGATGCAT | 0.991 ± 0.028 |
| TATAAGTTCC | 1.07 ± 0.075 |
| ATGGAGGCAA | 1.37 ± 0.12 |
| GGGGATTGTG | 0.991 ± 0.029 |
| CCCGGTCGGC | 0.983 ± 0.0038 |
| GACCCTGATC | 1.17 ± 0.058 |
| GTGGGTATTA | 1 ± 0.023 |
| TAAAAAACGG | 0.954 ± 0.042 |
| GTGGGTGTGT | 1.02 ± 0.045 |
| GATTGGAGGG | 0.997 ± 0.026 |
| TTTCGGGGGT | 1.07 ± 0.25 |
| ATATTCGGCG | 0.975 ± 0.022 |
| ATGTATTTTG | 0.967 ± 0.049 |
| TTGCGCGCTA | 0.98 ± 0.054 |
| GGTTCTTCGG | 0.9938 ± 0.0066 |
| TGGTGGCTGG | 0.989 ± 0.028 |
| CATTGTAAAG | 1.02 ± 0.033 |
| CGGGTAATCG | 1.01 ± 0.0082 |
| TAAGAGGCAC | 0.996 ± 0.052 |
| ACGTGAGGTT | 1.01 ± 0.059 |
| GATATTGGTT | 1.02 ± 0.025 |

| Sequence | switch fluorescence ratio |
| --- | --- |
| GATAGAGATT | 0.9961 ± 0.0066 |
| TCATATTTGT | 0.981 ± 0.019 |
| TATGTGCAGG | 0.995 ± 0.015 |
| TTGATACAGG | 1.29 ± 0.37 |
| CGGGGGGTAC | 1.03 ± 0.036 |
| TTCGTGGTTT | 1.032 ± 0.0055 |
| GGGATTGTT | 0.996 ± 0.033 |
| TATCAGTGGT | 0.997 ± 0.026 |
| ATCCTAATGG | 0.983 ± 0.012 |
| ATAGTAGTCA | 1.01 ± 0.024 |
| AAATCAGGTT | 0.972 ± 0.016 |
| TAATTGGAGA | 0.989 ± 0.014 |
| AGATTAGGGA | 0.975 ± 0.017 |
| GTTGGGTAAA | 0.983 ± 0.014 |
| GGGTTGCCCT | 0.982 ± 0.033 |
| TATGCAGTCA | 1.01 ± 0.029 |
| GCGGTGCGGG | 0.9878 ± 0.0042 |
| GCGGCGGCAG | 0.9761 ± 0.0088 |
| TATGTGAACT | 0.9986 ± 0.0019 |
| ATGGGGTGTT | 1 ± 0.024 |
| ATGGACGCCT | 1.01 ± 0.037 |
| AATTCTGGAA | 0.982 ± 0.011 |
| GAATTATATT | 0.988 ± 0.021 |

| Sequence | switch fluorescence ratio |
| --- | --- |
| GTTGTGCCTG | 1.01 ± 0.041 |
| ATCAAAGCGC | 1.03 ± 0.023 |
| TTGCTTTGGG | 1.01 ± 0.018 |
| TTTTACGGGT | 1.02 ± 0.087 |
| GGGTCCACAG | 1.01 ± 0.04 |
| AGAGCTGGGT | 1.02 ± 0.02 |
| CCTTTAGGTT | 1 ± 0.049 |
| TATCGTAAAT | 1 ± 0.029 |
| CACGGGGGCG | 1 ± 0.049 |
| TTTTAAAGTT | 0.968 ± 0.018 |
| GGGTTGGTCA | 0.994 ± 0.0094 |
| CTGAATCCGT | 1.25 ± 0.036 |
| CTAGTCGCGC | 1 ± 0.026 |
| AGGCAGTTCG | 0.996 ± 0.02 |
| GATTTGAATT | 0.977 ± 0.025 |
| TATACGACAT | 1.16 ± 0.2 |
| GATGTCAAGA | 1.01 ± 0.023 |
| GGGGGCTAGG | 1.02 ± 0.02 |
| AGTGTCGCCT | 0.985 ± 0.019 |
| GAATGGGTTG | 1.01 ± 0.028 |
| TCTGTAAGAA | 1.03 ± 0.041 |
| TTGGCGGGGA | 0.987 ± 0.054 |
| ATCTTTGGTA | 0.9826 ± 0.0074 |

| Sequence | switch fluorescence ratio |
| --- | --- |
| GGGTTAGGAA | 0.991 ± 0.022 |
| GACACGAGGT | 1.013 ± 0.0084 |
| ACAGGCCAGC | 1.01 ± 0.022 |
| GTTTTTTCGG | 0.993 ± 0.023 |
| ATTTGTATTG | 1.01 ± 0.022 |
| ATTCTTTGTT | 0.962 ± 0.045 |
| TTGTTAATCG | 0.984 ± 0.011 |
| AGGATAAATT | 0.983 ± 0.025 |
| ATGAATTTGC | 0.979 ± 0.044 |
| TAATTTGAAC | 1.02 ± 0.043 |
| TGTGTGTTAG | 0.985 ± 0.016 |
| GGCTTAGAAT | 0.97374 ± 0.00014 |
| TGGATCCCCA | 1.06 ± 0.091 |
| AAGGTGAGGG | 1.03 ± 0.02 |
| AATCGGTCAC | 0.998 ± 0.025 |
| GGCGCTTTGT | 0.979 ± 0.02 |
| GATTTCCTGG | 1.01 ± 0.02 |
| CAATGGCCGA | 0.9978 ± 0.0068 |
| GGGTGGTTTT | 1.01 ± 0.035 |
